As usually defined, the Km is the concentration of substrate that gives half-maximal velocity. One may read the Vmax as the rate approached at saturating substrate. The term kcat denotes the number of substrate molecules converted per active site and unit of time at saturation. What is called kcat/Km is the second-order rate constant that governs catalysis at low substrate concentration.

The results in this text go back to PMC10060375, “Self assembling nanoparticle enzyme clusters provide access to substrate channeling in multienzymatic cascades” (Nature Communications, 2023).

Substrate in data set [1]: O=C(O)[C@H](O)COP(=O)(O)O
The experiment in a line: initial rates, plate reader, Michaelis-Menten fit. It is filed as biochemical, Escherichia coli. Particulars: free enzyme, 30 °C, forward direction. An excerpt:
initial rates, plate reader, Michaelis-Menten fit on Phosphoglycerate mutase (PGM)

Substrate in the data set “purified protein”: O=C[C@H](O)COP(=O)(O)O
The experiment in a line: purified protein. Particulars: free enzyme, 30 °C, cosubstrates saturating, varied substrate inferred from pathway.

Substrate in data set [2]: O=C(O)[C@@H](CO)OP(=O)(O)O
As to the kind of experiment: initial rates, plate reader, Michaelis-Menten fit. Particulars: free enzyme, 30 °C, substrate inferred from pathway. It is filed as biochemical, Escherichia coli. An excerpt:
initial rates, plate reader, Michaelis-Menten fit on Enolase (Eno)

Substrate in data set [3]: O=C(CO)COP(=O)(O)O
The experiment in a line: initial rates, plate reader, Michaelis-Menten fit. It is filed as biochemical, Escherichia coli. Particulars: free enzyme, 30 °C, forward direction inferred (only PGI and PGK stated as reverse), substrate inferred from pathway. An excerpt:
initial rates, plate reader, Michaelis-Menten fit on Triose phosphate isomerase (TPI)

Substrate in data set [4]: CC(=O)C(=O)O
As to the kind of experiment: initial rates, plate reader, Michaelis-Menten fit. It is filed as biochemical, Escherichia coli. Particulars: free enzyme, 30 °C, cosubstrate saturating, varied substrate inferred from pathway. The text has this:
initial rates, plate reader, Michaelis-Menten fit on Lactate dehydrogenase (LDH)

B1: Phosphoglycerate mutase (PGM) (Escherichia coli K-12) (protein)
chain: MLVSKKPMVLVILDGYGYREEQQDNAIFSAKTPVMDALWANRPHTLIDASGLEVGLPDRQMGNSEVGHVNLGAGRIVYQDLTRLDVEIKDRAFFANPVLTGAVDKAKNAGKAVHIMGLLSAGGVHSHEDHIMAMVELAAERGAEKIYLHAFLDGRDTPPRSAESSLKKFEEKFAALGKGRVASIIGRYYAMDRDNRWDRVEKAYDLLTLAQGEFQADTAVAGLQAAYARDENDEFVKATVIRAEGQPDAAMEDGDALIFMNFRADRAREITRAFVNADFDGFARKKVVNVDFVMLTEYAADIKTAVAYPPASLVNTFGEWMAKNDKTQLRISETEKYAHVTFFFNGGVEESFKGEDRILINSPKVATYDLQPEMSSAELTEKLVAAIKSGKYDTIICNYPNGDMVGHTGVMEAAVKAVEALDHCVEEVAKAVESVGGQLLITADHGNAEQMRDPATGQAHTAHTNLPVPLIYVGDKNVKAVEGGKLSDIAPTMLSLMGMEIPQEMTGKPLFIVE
notes: full length, terminal His6 kept; E. coli BL21(DE3)
Turning to B1, the Km in data set [1] came out at 3.584 ± 1.138 mM.

B2: Glyceraldehyde-3-phosphate dehydrogenase (GPD) (Escherichia coli K-12) (protein)
chain: TIKVGINGFGRIGRIVFRAAQKRSDIEIVAINDLLDADYMAYMLKYDSTHGRFDGTVEVKDGHLIVNGKKIRVTAERDPANLKWDEVGVDVVAEATGLFLTDETARKHITAGAKKVVMTGPSKDNTPMFVKGANFDKYAGQDIVSNASCTTNCLAPLAKVINDNFGIIEGLMTTVHATTATQKTVDGPSHKDWRGGRGASQNIIPSSTGAAKAVGKVLPELNGKLTGMAFRVPTPNVSVVDLTVRLEKAATYEQIKAAVKAAAEGEMKGVLGYTEDDVVSTDFNGEVCTSVFDAKAGIALNDNFVKLVSWYDNETGYSNKVLDLIAHISK
For B2, in the data set “purified protein”, the Km is 3.494 ± 1.039 mM, the Vmax was found to be 0.6 µM/min, the kcat stood at 3.2 s⁻¹ and the kcat/Km stood at 920 M⁻¹ s⁻¹.

B3: Enolase (Eno) (Escherichia coli K-12) (protein)
chain: SKIVKIIGREIIDSRGNPTVEAEVHLEGGFVGMAAAPSGASTGSREALELRDGDKSRFLGKGVTKAVAAVNGPIAQALIGKDAKDQAGIDKIMIDLDGTENKSKFGANAILAVSLANAKAAAAAKGMPLYEHIAELNGTPGKYSMPVPMMNIINGGEHADNNVDIQEFMIQPVGAKTVKEAIRMGSEVFHHLAKVLKAKGMNTAVGDEGGYAPNLGSNAEALAVIAEAVKAAGYELGKDITLAMDCAASEFYKDGKYVLAGEGNKAFTSEEFTHFLEELTKQYPIVSIEDGLDESDWDGFAYQTKVLGDKIQLVGDDLFVTNTKILKEGIEKGIANSILIKFNQIGSLTETLAAIKMAKDAGYTAVISHRSGETEDATIADLAVGTAAGQIKTGSMSRSDRVAKYNQLIRIEEALGEKAPYNGRKEIKGQA
notes: as for B1
Regarding B3, in data set [2], the Km was determined as 2.04 ± 0.072 mM, the Vmax is 4.14 µM/min, the catalytic constant (kcat) came out at 22.9 ± 3 s⁻¹ and the kcat/Km amounted to 11200 ± 4300 M⁻¹ s⁻¹.

B4: Triose phosphate isomerase (TPI) (Escherichia coli K-12) (protein)
chain: MRHPLVMGNWKLNGSRHMVHELVSNLRKELAGVAGCAVAIAPPEMYIDMAKREAEGSHIMLGAQNVDLNLSGAFTGETSAAMLKDIGAQYIIIGHSERRTYHKESDELIAKKFAVLKEQGLTPVLCIGETEAENEAGKTEEVCARQIDAVLKTQGAAAFEGAVIAYEPVWAIGTGKSATPAQAQAVHKFIRDHIAKVDANIAEQVIIQYGGSVNASNAAELFAQPDIDGALVGGASLKADAFAVIVKAAEAAKQA
notes: as for B1
Regarding B4, in data set [3], the Km is 1.717 ± 0.236 mM, the Vmax came out at 34.9 µM/min, the kcat was found to be 194 ± 12 s⁻¹ and the kcat/Km was 113000 ± 17000 M⁻¹ s⁻¹.

B5: Lactate dehydrogenase (LDH) (Escherichia coli K-12) (protein)
chain: MKLAVYSTKQYDKKYLQQVNESFGFELEFFDFLLTEKTAKTANGCEAVCIFVNDDGSRPVLEELKKHGVKYIALRCAGFNNVDLDAAKELGLKVVRVPAYDPEAVAEHAIGMMMTLNRRIHRAYQRTRDANFSLEGLTGFTMYGKTAGVIGTGKIGVAMLRILKGFGMRLLAFDPYPSAAALELGVEYVDLPTLFSESDVISLHCPLTPENYHLLNEAAFEQMKNGVMIVNTSRGALIDSQAAIEALKNQKIGSLGMDVYENERDLFFEDKSNDVIQDDVFRRLSACHNVLFTGHQAFLTAEALTSISQTTLQNLSNLEKGETCPNELV
notes: full length, terminal His6 kept; E. coli BL21(DE3); EC 1.1.1.28
Consider B5, for which, in data set [4], the Km was 31.47 ± 6.901 mM, the Vmax is 14.4 µM/min, the kcat was 95.5 ± 10.4 s⁻¹ and the kcat/Km is 3040 ± 740 M⁻¹ s⁻¹.
